Reference: the supplement of paper PMC10567573

B1: HESX1 (parent)
chain: QKKDCVPLMKPHRPWADTCSSSGK
B2: ESRRA (parent)
chain: SLPLQDELAFAEDLVLDEEGARAA

Variants of: B1
Assay: protein stability index of a GFP-peptide fusion (GPS, HEK-293T) (PSI 1-6); higher = more stable
Details: c terminus: a fixed tail appended
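Also: lentivirally expressed fusions sorted by FACS into six bins by GFP to DsRed ratio, PSI derived from sequencing read proportions per bin multiplied by bin number.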

Going from QKKDCVPLMKPHRPWADTWSSSGK [C19W] to QKKDCVPLMKPHRPWADTQSSSGK [C19Q], the protein stability index rises from 2.47 to 4.03.

Variant QKKDCVPLMKPHRPWADTRSSSGK [C19R] has a protein stability index of 4.08.

Variants of: B2
Assay: as above
Details: c terminus: a fixed tail appended

Compared with SAPLQDELAFAEDLVLDEEGARAA [L2A], SFPLQDELAFAEDLVLDEEGARAA [L2F] is lower in protein stability index: 4.07 for the first, 3.06 for the second.

First: SSPLQDELAFAEDLVLDEEGARAA [L2S]
Second: SMPLQDELAFAEDLVLDEEGARAA [L2M]
The protein stability index of the first is higher: 4.21 for the first, 3.48 for the second.

Going from SYPLQDELAFAEDLVLDEEGARAA [L2Y] to SIPLQDELAFAEDLVLDEEGARAA [L2I], the protein stability index falls from 3.22 to 2.78.

Compared with SHPLQDELAFAEDLVLDEEGARAA [L2H], SPPLQDELAFAEDLVLDEEGARAA [L2P] is higher in protein stability index: 2.78 for the first, 4.27 for the second.

First: SKPLQDELAFAEDLVLDEEGARAA [L2K]
Second: STPLQDELAFAEDLVLDEEGARAA [L2T]
The protein stability index of the first is higher: 4.4 for the first, 3.52 for the second.

First: SVPLQDELAFAEDLVLDEEGARAA [L2V]
Second: SGPLQDELAFAEDLVLDEEGARAA [L2G]
The protein stability index of the first is lower: 3.26 for the first, 4.81 for the second.

Compared with SCPLQDELAFAEDLVLDEEGARAA [L2C], SEPLQDELAFAEDLVLDEEGARAA [L2E] is higher in protein stability index: 2.32 for the first, 5.29 for the second.

Compared with SWPLQDELAFAEDLVLDEEGARAA [L2W], SRPLQDELAFAEDLVLDEEGARAA [L2R] is lower in protein stability index: 2.69 for the first, 2.55 for the second.

Going from SDPLQDELAFAEDLVLDEEGARAA [L2D] to SQPLQDELAFAEDLVLDEEGARAA [L2Q], the protein stability index falls from 5.55 to 3.95.

Compared with SNPLQDELAFAEDLVLDEEGARAA [L2N], WLPLQDELAFAEDLVLDEEGARAA [S1W] is lower in protein stability index: 3.86 for the first, 2.73 for the second.

Compared with VLPLQDELAFAEDLVLDEEGARAA [S1V], DLPLQDELAFAEDLVLDEEGARAA [S1D] is higher in protein stability index: 2.89 for the first, 3.07 for the second.

Compared with CLPLQDELAFAEDLVLDEEGARAA [S1C], FLPLQDELAFAEDLVLDEEGARAA [S1F] is lower in protein stability index: 2.93 for the first, 2.48 for the second.

First: ALPLQDELAFAEDLVLDEEGARAA [S1A]
Second: KLPLQDELAFAEDLVLDEEGARAA [S1K]
The protein stability index of the first is higher: 3.94 for the first, 3.09 for the second.

First: MLPLQDELAFAEDLVLDEEGARAA [S1M]
Second: LLPLQDELAFAEDLVLDEEGARAA [S1L]
The protein stability index of the first is higher: 2.66 for the first, 2.26 for the second.

First: NLPLQDELAFAEDLVLDEEGARAA [S1N]
Second: PLPLQDELAFAEDLVLDEEGARAA [S1P]
The protein stability index of the first is lower: 2.81 for the first, 3.54 for the second.

Compared with QLPLQDELAFAEDLVLDEEGARAA [S1Q], ILPLQDELAFAEDLVLDEEGARAA [S1I] is lower in protein stability index: 3.09 for the first, 3.03 for the second.

Compared with YLPLQDELAFAEDLVLDEEGARAA [S1Y], HLPLQDELAFAEDLVLDEEGARAA [S1H] is higher in protein stability index: 2.78 for the first, 2.89 for the second.

First: TLPLQDELAFAEDLVLDEEGARAA [S1T]
Second: RLPLQDELAFAEDLVLDEEGARAA [S1R]
The protein stability index of the first is lower: 3.01 for the first, 3.28 for the second.

Going from GLPLQDELAFAEDLVLDEEGARAA [S1G] to ELPLQDELAFAEDLVLDEEGARAA [S1E], the protein stability index rises from 2.81 to 2.94.

Compared with SLPNQDELAFAEDLVLDEEGARAA [L4N], SLPFQDELAFAEDLVLDEEGARAA [L4F] is lower in protein stability index: 5.36 for the first, 4.96 for the second.

First: SLPKQDELAFAEDLVLDEEGARAA [L4K]
Second: SLPPQDELAFAEDLVLDEEGARAA [L4P]
The protein stability index of the first is lower: 5.08 for the first, 5.46 for the second.

First: SLPAQDELAFAEDLVLDEEGARAA [L4A]
Second: SLPIQDELAFAEDLVLDEEGARAA [L4I]
The protein stability index of the first is higher: 5.45 for the first, 4.43 for the second.

Going from SLPDQDELAFAEDLVLDEEGARAA [L4D] to SLPWQDELAFAEDLVLDEEGARAA [L4W], the protein stability index rises from 4.97 to 5.32.

Compared with SLPVQDELAFAEDLVLDEEGARAA [L4V], SLPMQDELAFAEDLVLDEEGARAA [L4M] is lower in protein stability index: 5.02 for the first, 3.51 for the second.

First: SLPTQDELAFAEDLVLDEEGARAA [L4T]
Second: SLPYQDELAFAEDLVLDEEGARAA [L4Y]
The protein stability index of the first is higher: 5.43 for the first, 5.26 for the second.

First: SLPGQDELAFAEDLVLDEEGARAA [L4G]
Second: SLPEQDELAFAEDLVLDEEGARAA [L4E]
The protein stability index of the first is higher: 5.68 for the first, 5.59 for the second.

SLPCQDELAFAEDLVLDEEGARAA [L4C] and SLPRQDELAFAEDLVLDEEGARAA [L4R] are the same in protein stability index: 5.1 for the first, 5.1 for the second.

Going from SLPHQDELAFAEDLVLDEEGARAA [L4H] to SLPSQDELAFAEDLVLDEEGARAA [L4S], the protein stability index falls from 5.41 to 5.39.

Compared with SLPQQDELAFAEDLVLDEEGARAA [L4Q], SLQLQDELAFAEDLVLDEEGARAA [P3Q] is lower in protein stability index: 5.64 for the first, 4.21 for the second.

First: SLHLQDELAFAEDLVLDEEGARAA [P3H]
Second: SLALQDELAFAEDLVLDEEGARAA [P3A]
The protein stability index of the first is lower: 4.45 for the first, 4.97 for the second.

Compared with SLYLQDELAFAEDLVLDEEGARAA [P3Y], SLLLQDELAFAEDLVLDEEGARAA [P3L] is higher in protein stability index: 4.61 for the first, 4.84 for the second.

First: SLRLQDELAFAEDLVLDEEGARAA [P3R]
Second: SLVLQDELAFAEDLVLDEEGARAA [P3V]
The protein stability index of the first is lower: 4.46 for the first, 4.91 for the second.

Going from SLNLQDELAFAEDLVLDEEGARAA [P3N] to SLFLQDELAFAEDLVLDEEGARAA [P3F], the protein stability index rises from 4.08 to 4.6.

First: SLELQDELAFAEDLVLDEEGARAA [P3E]
Second: SLDLQDELAFAEDLVLDEEGARAA [P3D]
The protein stability index of the first is higher: 4.97 for the first, 4.14 for the second.

First: SLSLQDELAFAEDLVLDEEGARAA [P3S]
Second: SLKLQDELAFAEDLVLDEEGARAA [P3K]
The protein stability index of the first is higher: 5.28 for the first, 5.08 for the second.

Going from SLWLQDELAFAEDLVLDEEGARAA [P3W] to SLMLQDELAFAEDLVLDEEGARAA [P3M], the protein stability index falls from 4.32 to 4.18.

Going from SLCLQDELAFAEDLVLDEEGARAA [P3C] to SLTLQDELAFAEDLVLDEEGARAA [P3T], the protein stability index rises from 4.78 to 4.8.

First: SLGLQDELAFAEDLVLDEEGARAA [P3G]
Second: SLILQDELAFAEDLVLDEEGARAA [P3I]
The protein stability index of the first is higher: 4.7 for the first, 3.93 for the second.

Going from SLPLRDELAFAEDLVLDEEGARAA [Q5R] to SLPLGDELAFAEDLVLDEEGARAA [Q5G], the protein stability index rises from 3.37 to 4.43.

Going from SLPLIDELAFAEDLVLDEEGARAA [Q5I] to SLPLCDELAFAEDLVLDEEGARAA [Q5C], the protein stability index rises from 3.37 to 3.7.

Going from SLPLADELAFAEDLVLDEEGARAA [Q5A] to SLPLEDELAFAEDLVLDEEGARAA [Q5E], the protein stability index rises from 3.25 to 5.48.

Going from SLPLNDELAFAEDLVLDEEGARAA [Q5N] to SLPLSDELAFAEDLVLDEEGARAA [Q5S], the protein stability index rises from 3.77 to 4.79.

First: SLPLHDELAFAEDLVLDEEGARAA [Q5H]
Second: SLPLPDELAFAEDLVLDEEGARAA [Q5P]
The protein stability index of the first is lower: 3.66 for the first, 4.94 for the second.

Compared with SLPLDDELAFAEDLVLDEEGARAA [Q5D], SLPLLDELAFAEDLVLDEEGARAA [Q5L] is lower in protein stability index: 5.44 for the first, 3.02 for the second.

Going from SLPLFDELAFAEDLVLDEEGARAA [Q5F] to SLPLKDELAFAEDLVLDEEGARAA [Q5K], the protein stability index falls from 3.85 to 2.79.

Variant SLPLMDELAFAEDLVLDEEGARAA [Q5M] has a protein stability index of 2.48.
